Measurements from PMC8389677, “Time-Resolved Studies of Ytterbium Distribution at Interfacial Surfaces of Ferritin-like Dps Protein Demonstrate Metal Uptake and Storage Pathways” (Biomedicines, 2021).

Molecular target: the molecule itself
Test: crystal structure; apo-LiDps crystals (hanging drop, 100 mM HEPES pH 7.5, 12.5-20.0% PEG 1500, 21 °C) soaked 30 or 120 min in 10 mM YbCl3; space group P41212 with six monomers in the asymmetric unit; data at 100 K

B1: Listeria innocua Dps (DNA binding protein from starved cells) (natural protein)
chain: MKTINSVDTKEFLNHQVANLNVFTVKIHQIHWYMRGHNFFTLHEKMDDLYSEFGEQMDEVAERLLAIGGSPFSTLKEFLENASVEEAPYTKPKTMDQLMEDLVGTLELLRDEYKQGIELTDKEGDDVTNDMLIAFKASIDKHIWMFKAFLGKAPLE
notes: Dps (ferritin-like protein) of Listeria innocua; Homo-dodecameric cage; Crystals in space group P41212 have six monomers in the asymmetric unit; Crystals were soaked with 10 mM YbCl3 for 30 or 120 min; PDB 1QGH was the search model for molecular replacement; also called LiDps; Apo-Dps; copies: 12
B1 was tested, and the “stoichiometry N” value was 12.
